# Source: paper PMC8373112
# Test system: RqcH-HTF wild-type (Bacillus subtilis)
# Assay: EMSA
# Details: native tRNA modifications, deacylated; EMSA: HEPES:Polymix buffer, 5 mM Mg2+, 0.1 uM tRNA, 1 uM mRNA(MVF) competitor, 37 C 5 min, gel at 4 C; pull-down: HEPES:Polymix pH 7.5, 1 mM DTT, 5 mM MgOAc …
row,Substance,K half
1,tRNAAla,190 nM
2,tRNALys,310 nM
3,tRNAVal,390 nM
